Literature values as cited in article PMC3702509, “Label Free Fragment Screening Using Surface Plasmon Resonance as a Tool for Fragment Finding – Analyzing Parkin, a Difficult CNS Target” (PLoS ONE, 2013).

Target: UblD (Parkin ubiquitin-like domain) Ubl domain (Homo sapiens) (UniProt O60260)
Sequence (O60260 1-76): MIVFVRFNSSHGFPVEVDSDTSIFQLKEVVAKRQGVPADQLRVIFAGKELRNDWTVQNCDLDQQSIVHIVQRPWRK

Parkin (ΔUblD) ΔUblD, sequence (O60260 77-465, stated change not applied): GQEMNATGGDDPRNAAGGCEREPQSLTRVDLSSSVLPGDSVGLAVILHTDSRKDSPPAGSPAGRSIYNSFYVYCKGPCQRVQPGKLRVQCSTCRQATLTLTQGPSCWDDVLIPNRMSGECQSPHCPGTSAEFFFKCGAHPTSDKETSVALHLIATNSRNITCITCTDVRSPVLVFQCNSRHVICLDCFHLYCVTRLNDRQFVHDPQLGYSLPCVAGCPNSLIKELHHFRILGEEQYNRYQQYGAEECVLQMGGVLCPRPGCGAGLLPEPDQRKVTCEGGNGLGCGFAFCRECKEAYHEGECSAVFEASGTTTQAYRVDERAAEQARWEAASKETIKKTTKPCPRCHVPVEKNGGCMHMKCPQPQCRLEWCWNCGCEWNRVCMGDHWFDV

Substance: Parkin (ΔUblD) ΔUblD (from UniProt O60260)
- Kd: 2600 nM
